Test: yeast display, Sf9 membrane polyspecificity reagent, FACS + sequencing; frameworks hold sequencing errors
Outline: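 Nanobodies came from a synthetic yeast display library in Saccharomyces cerevisiae BJ5465, induced with galactose for 36–48 hours and stained for 1 hour at 4 °C with 10% biotinylated, detergent-solubilized Sf9 membrane reagent. Cells were enriched on streptavidin microbeads and then FACS-sorted, with low and high (top ~1%) gates set on anti-HA fluorescence for expression and streptavidin fluorescence for reagent binding. Each polyreactivity label reflects the gate a clone came from. Genes were amplified by colony PCR, sequenced by MiSeq 2 × 250 and filtered by CDR length.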

| Sequence | polyreactivity (PSR sort gate) |
| --- | --- |
| QVQLVESGGGLVQAGGSLRLSCAASGRTFVDSVMGWYRQAPGKERELVAAISRSGSTYYADSVKGRFTISRDNAKNTVYLQMNSLKPEDTAVYYCAADWSFNRSSGQYGFYYWGQGTQVTVSS | low polyreactivity |
| QVQLVESGGGLVQAGGSLRLSCAASGRTFVDYAMGWYRQAPGKERELVAAISSSGASTYYADSVKGRFTISRDNAKNTVYLQMNSLKPEDTAVYYCAARRHRTYGYWGQGTQVTVSS | high polyreactivity |
| QVQLVESGGGLVQAGGSLRLSCAASGRTFVEYAMGWYRQAPGKERELVAAITYSGDDTYYADSVKGRFTISRDNAKNTVYLQMNSLKPEDTAVYYCAKKRSKPISFDYWGQGTQVTVSS | high polyreactivity |
| QVQLVESGGGLVQAGGSLRLSCAASGRTFVFNAMGWYRQAPGKERELVAAISRSGGSTYYADSVKGRFTISRDNAKNTVYLQMNSLKPEDTAVYYCAADKYYLFALYEYGYWGQGTQVTVSS | high polyreactivity |
| QVQLVESGGGLVQAGGSLRLSCAASGRTFVFNGMGWYRPAPGKERELVAAINWDGGDTYYADSVKGRFTISRDNAKNTVYLQMNSLKPEDTAVYYCAAEGIFRYYTQATMEYWGQGTQVTVSS | low polyreactivity |
| QVQLVESGGGLVQAGGSLRLSCAASGRTFVGYAMGGYRQAPGQERELVANMTTSGGNTYYADSVKGRFTISRDNAKNTDYLQMNSLKPEDTAVYYCAARVYWVTRAVSTSYYYWGQGTQGTVSS | high polyreactivity |
| QVQLVESGGGLVQAGGSLRLSCAASGRTFVGYAMGWYRQAPGKERELVAAITYSGVSTYYADSVKGRFTISRDNAKNTVYLQMNSLKPEDTAVYYCAADYISVYGYEYYYWGQGTQVTVSS | high polyreactivity |
| QVQLVESGGGLVQAGGSLRLSCAASGRTFVGYAMGWYRQAPGKERELVASITASGGRTYYADSVKGRFTISRDNAKNTVYLQMNSLKPEDTAVYYCAAYIHWSEDYWGQGTQVTVSS | low polyreactivity |
| QVQLVESGGGLVQAGGSLRLSCAASGRTFVGYSMGWYRQAPGKEREFVATITSSGRTNYADSVKGRFTISRDNAKNTVYLQMNSLKPEDTAVYYCNAVYGRFVDLRYDYWGHGTQVTVSS | high polyreactivity |
| QVQLVESGGGLVQAGGSLRLSCAASGRTFVIYAMGWYRQAPGKEREFVAAISRSGGSTYYADSVKGRFTISRDNAKNTVYLQMNSLKPEDTAVYYCNTRTPYWFKSDYWGQGTQVTVSS | low polyreactivity |
| QVQLVESGGGLVQAGGSLRLSCAASGRTFVIYARGWYRQAPGKEWALVAAINWRGGSTYYADSVKGRFTISRDNAKNTVYLQMNSLKPEDTAVYYCAADTGWWWLYDYWGQGTQVTVSS | high polyreactivity |
| QVQLVESGGGLVQAGGSLRLSCAASGRTFVKNAMGWYRQAPGKERELVAAISSSGGSTYYADSVKGRFTISRDNAKNTVYLQMNSLKPEDTAVYYCNRYSRLYLTDDDYWGQGTQVTVSS | high polyreactivity |
| QVQLVESGGGLVQAGGSLRLSCAASGRTFVKNNMGWYRQSPGKERELVAAISSSGGSTYYADSVKGRFTISRDNAKNSVYLHMNSLNPEDTAVYFCAVSYPYKHAGGWYAYNYWGQGTQVTVSS | high polyreactivity |
| QVQLVESGGGLVQAGGSLRLSCAASGRTFVKYAMGWYRQAPGKERELVAAISWSGGSTYYADSVKGRFTISRDNAKNTVYLQMNSLKPEDTAVYYCAAPSSRGQGRNFDYWGQGTQVTVSS | high polyreactivity |
| QVQLVESGGGLVQAGGSLRLSCAASGRTFVNYAMGWYRQAPGKEREFVAAITNGGRTNYADSVKGRFTISRDNAKNTVYLQMNSLKPEDTAVYYCAARYRFGGIRRYNYWGQGTQVTVSS | high polyreactivity |
| QVQLVESGGGLVQAGGSLRLSCAASGRTFVNYAMGWYRQAPGKERELVAAITSDGSTSYADSVKGRFTISRDNAKNTVYLQMNSLKPEDTAVYFCAKDFFEHSPVSHTYSSSKYDYWGQGTQVTVSS | low polyreactivity |

| Sequence | polyreactivity (PSR sort gate) |
| --- | --- |
| QVQLVESGGGLVQAGGSLRLSCAASGRTFVNYTMGWDRQAPGKERELVAAIRYRDGSTYYADSVKGRFTISRDNAKNTVYLQMNSLKPEDTAVYYCNTRITQVGDYIYDYWGQGTQVTVSS | low polyreactivity |
| QVQLVESGGGLVQAGGSLRLSCAASGRTFVPNTMGWYRQAPGKERELVAAIRWSVGSTYYADSVKGRFTISRDNAKNTVYLQMNSLKPEDTAVYYCAAYYSRSYLRYGMDYWGQGTQVTVSS | high polyreactivity |
| QVQLVESGGGLVQAGGSLRLSCAASGRTFVPYAMGWYRQAPGKEREFVAAISSRVGSTYYADSVKGRFTISRDNAKNTVYLQRNSLKPEDTAVYYCNAPFKPAGFYSAWKYDYWGQGTQVTVSS | low polyreactivity |
| QVQLVESGGGLVQAGGSLRLSCAASGRTFVQYVMGWYRQAPGKERELVARISSGGSTFYADSVKGRFTISRDNAKNSVYLQLNSLKPEDTAVYYCAAQWTRYRRRPMDYWGQGTQVTVSS | high polyreactivity |
| QVQLVESGGGLVQAGGSLRLSCAASGRTFVRNAMGWYRQAPGKERELVAAISSSGGSTYYADSVKGRFTISRDNAKNTVYLQMNSLKPEDTAVYYCAAFRIGREYWGQGTQVTVSS | high polyreactivity |
| QVQLVESGGGLVQAGGSLRLSCAASGRTFVRNTMGWYRQAPGKEREFVAAISRSGGNTNYADSVKGRFTISRDNAKNTVYLQMNSLKPEDTAVYYCATRAGYQVYPNKMNYWGQGTQVTVSS | high polyreactivity |
| QVQLVESGGGLVQAGGSLRLSCAASGRTFVSYAMGWYRPAPGKERELVAGISWSGDSTYYADSVKGRFTISRDNAKNTVYLEMNSLKPEDSAVYYCAAYGPFIYGGHHYNYWGQGTQVTVSS | low polyreactivity |
| QVQLVESGGGLVQAGGSLRLSCAASGRTFVTNAMGWYRQAPGKERELVAAISKSGGRTYYADSVKGRFTISRDNAKNTVYLQMNRLKPEDTAVYYCAADKRYLSYDYWGQGTQVTVSS | high polyreactivity |
| QVQLVESGGGLVQAGGSLRLSCAASGRTFVTNAMGWYRQAPGKERELVAAISSGDDSTYYADSVKGRFTISRDNAKNTVYLQMNSLKPEDTAVYYCAAEGYYVDYYFYFHGFDYWGQGTQVTVSS | high polyreactivity |
| QVQLVESGGGLVQAGGSLRLSCAASGRTFVTNAMGWYRQAPGKERELVAAITQRGGRTYYADSVKGRFTISRDNAKNTVYLQMNSLKPEDTAVYYCAASYYGWSARYDTLGIYEYWGQGTQVTVSS | high polyreactivity |
| QVQLVESGGGLVQAGGSLRLSCAASGRTFVTYAMGWYRQAPGKEREFVAAISRNGGSTYYADSVKGRFTISRDNAKNTVYLQMNSLKPEDTAVYYCAKGRPWYRGDYWGQGTQVTVSS | low polyreactivity |
| QVQLVESGGGLVQAGGSLRLSCAASGRTFVVNAMGWYRQAPGKERELVATIRWSGGRTYYADSVKGRFTISRDNAKNTVYLQMNSLKPEDTAVYYCAADFKGLFSSELDYWGQGTQVTVSS | low polyreactivity |
| QVQLVESGGGLVQAGGSLRLSCAASGRTFVVYAMGWYRQAPGKERELVAAINWSGTSTYYADSVKGRFTISRDNAKNTVYLQMNSLKPEDTAVYYCAAVAGLGTYRRYGYWGQGTQVTVSS | high polyreactivity |
| QVQLVESGGGLVQAGGSLRLSCAASGRTFVVYAMGWYRQAPGKERELVAVIRVIGGSTNYADSVKGRFTISRDNAKNTVYLQMNSLKPEDTAVYYCAADGVVVVAADMYYWGQGTQVTVSS | low polyreactivity |
| QVQLVESGGGLVQAGGSLRLSCAASGRTFVWNAMGWYRQAPGKERELVAAIDWSGGSTYYADSVKGRFTISRDNAKNTVYLQMNSLKPEDTAGYYCAKEYWYRALWYNYWGQGTQVTVSS | high polyreactivity |

From the nanobody polyreactivity screen of Harvey et al. (2022)
